As usually defined, the Kd is the free concentration of one partner at which half of the binding sites on the other are occupied at equilibrium, for simple one-to-one binding. High values mean lower affinity, low ones higher affinity.

This note sets out measurements from patent publication US20230094463A1 (TRUEBINDING, published 2023).

Bounds are passed on as bounds.

For test [1], the target named is T1, Human GAL3 protein (TrueBinding, QCB200349 / QCB200352; R&D Systems, 8259-GA) (human, UniProt P17931 2-250).
T1 construct: also called human galectin-3
T1 sequence (P17931 2-250 limits assumed): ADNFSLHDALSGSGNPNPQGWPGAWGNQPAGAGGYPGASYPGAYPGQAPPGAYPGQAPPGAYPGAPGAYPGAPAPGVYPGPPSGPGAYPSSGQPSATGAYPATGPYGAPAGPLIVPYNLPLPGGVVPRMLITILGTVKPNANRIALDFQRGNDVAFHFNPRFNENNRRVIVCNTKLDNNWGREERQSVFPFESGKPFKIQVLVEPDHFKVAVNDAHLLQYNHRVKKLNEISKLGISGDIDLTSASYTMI
Briefly: blocking ELISA (GAL3 coated; antibody + biotinylated ITGb3).

The target of test [2] is T1, Human GAL3 protein (TrueBinding, …). Briefly: blocking ELISA (GAL3 coated; antibody + biotinylated ITGaV).
For test [3] the target is unchanged. Briefly: blocking ELISA (GAL3 coated; antibody + biotinylated ITGa3). (In general: ELISA stands for enzyme-linked immunosorbent assay.)
Test [4] deals with T2, Human Galectin-3 protein (Acro Biosystems, GA3-H5129) (human, UniProt P17931 2-250).
T2 construct: Bought protein; also called Gal3-ECD-His; Gal3-His; not shown: linker-spaced 6-histidine tag
T2 sequence (P17931 2-250): as the sequence (P17931 2-250 limits assumed) above
Briefly: ELISA, blocking of INSR binding to coated Gal3.

Test [5] has as its target T2, Human Galectin-3 protein (Acro …). In words: SPR (Biacore T200), antibody captured, Galectin-3 as analyte.
For test [6] the target is unchanged. Briefly: blocking ELISA (Gal3 coated; antibody 3 µg/mL + INSR).

B1: F847C.11B1 (antibody, V domains shown)
VH: EVQLQQSGPELVKPGASVKISCKASGNTFTDHNMHWVKQSHGKSLEWIGYIYPYNGGTGYNQKFKSKATLTVDNSSSTVYMELRSLTSEDSAVYYCARGEYDYLAWFAYWGQGTLVTVSA
VL: EIVLTQSPASLSVTTGEKVTIRCITSIDIDDDMNWYQQKPGEPPKLLISEGNTLRPGVPSRFSSSGYGTDFVFTIENTLSEDVADYYCLQSDNKPLTFGAGTKLELKR
notes: anti-Gal3 antibody; also called 847.11B1
As for B1, the “percent blockade of GAL3-ITGb3 interaction” value in test [1] is below 10%. In test [2], the “percent blockade of GAL3-ITGaV interaction” value was below 30%. Moreover, the “percent blockade of GAL3-ITGa3 interaction” value in test [3] is below 35%.

B2: F847C.10B9 (antibody, V domains shown)
VH: QIQLVQSGPEVKKPGETVKISCKASGYIFTNYGMNWVKQAPGKGLKWMGWINTYTGEPTYTDDFKGRFAFSLETSASTAYLQINNLKNEDTATYFCAKFGNYVGAMDYWGQGTSVTVSS
VL: DIRMTQSPSSLSASLGDTITITCHASQNINVWLSWYQQKPGNIPKLLIYKASNLHTGVPSRFSGSGSGTGFTLTISSLQPEDIATYYCQQGQSYPYTFGGGTKLELK
notes: also called 847.10B9
For B2, in test [1], the “percent blockade of GAL3-ITGb3 interaction” value is above 90%. For the same molecule, the “percent blockade of GAL3-ITGaV interaction” value in test [2] is above 90%. Also, in test [3], the “percent blockade of GAL3-ITGa3 interaction” value is above 90%.

B3: F847C.26F5 (antibody, V domains shown)
VH: QIQLVQSGPEVKKPGETVKISCKASGYIFTNYGMNWVKQAPGKGLKWMGWINTYTGEPTYTDDFKGRFAFSLETSASTAYLQINNLKNEDTATYFCAKFGNYVGAMDYWGQGTSVTVSS
VL: EIKMNQSPSSLSASLGDTITITCHASQNINVWLSWYQQKPGNIPKLLIYKASNLHTGVPSRFSGSGSGTGFTLTISSLQPEDIATYYCQQGQSYPYTFGGGTKLELK
notes: also called 847.26F5
B3: the “percent blockade of GAL3-ITGb3 interaction” value in test [1] is above 90%. Also, the “percent blockade of GAL3-ITGaV interaction” value in test [2] was above 90%. For the same molecule, the “percent blockade of GAL3-ITGa3 interaction” value in test [3] was above 90%.

B4: F847C.12F12 (antibody, V domains shown)
VH: QIQLVQSGPELKKPGETVKISCKASGYTFTNYGMNWVKQAPGKGLKWMGWINTYTGEPTYVDDFKGRFAFSLETSASTAYLRINNLKNEDTATYFCAKFGNYVGAMDYWGQGTSVTVSS
VL: DIQVIQSPSSLSASLGDTITITCHASQNINVWLSWYQQKPGNIPKLLIYKASNLHTGVPSRFSGSGSGTGFTLTISSLQPEDIATYYCQQGQSYPYTFGGGTKLELK
notes: anti-Gal3 antibody; also called 847.12F12; 84712F12
B4: the “percent blockade of GAL3-ITGb3 interaction” value in test [1] was above 90%. Moreover, the “percent blockade of GAL3-ITGaV interaction” value in test [2] is above 90%. Moreover, in test [3], the “percent blockade of GAL3-ITGa3 interaction” value was above 90%.

B5: F846C.1H5 (antibody, V domains shown)
VH: EVQLLESGGGLVKPGGSLKLSCAASGFTFSSYAMSWVRQTPEKRLEWVASISSGGDTYYPDSVKGRFTISRDNARNILYLQMSSLRSEDTAMYYCASYGNSLFDYWGQGTTLTVSS
VL: DVVMTQTPLSLPVSLGDQASISCRSSQSLVHNSGNTYLHWYLQRPGQSPNLLIYKVSNRFSGVPDRFSGSGSGTDFTLKISRVAAEDLGVYFCSQSTHVPPTFGGGTKLEIK
notes: anti-Gal3 antibody; also called 846.1H5
In the case of B5, in test [3], the “percent blockade of GAL3-ITGa3 interaction” value is above 90%.

B6: F847C.4B10 (antibody, V domains shown)
VH: EVQLVETGGGLVKPGGSLKLSCAASGFTFSSYAMSWVRQTPEKRLEWVASISSGGSTYYPDSVKGRFTISRDNARNILYLQMSSLRSEDTAMYYCTRFTTVVEMDYWGQGTSVTVSS
VL: QAVVTQESALTTSPGETVTLTCRSSTGAVTTSNYANWVQEKPDHLFTGLIGGTNNRAPGVPARFSGSLIGDKAALTITGAQTEDEAIYFCALWYSNHLVFGGGTKLTVLR
notes: anti-Gal3 antibody; also called 847.4B10
Take B6: the “percent blockade of GAL3-ITGa3 interaction” value in test [3] was above 90%.

B7: F846TC.14A2 (antibody, V domains shown)
VH: QIQLVQSGPELKKPGETVKISCKASGYTFTNYGMNWVKQAPGKGLKWMGWINTYTGEPTYAGDLKGRFAFSLETSASTAYLQINNLKNEDTATYFCVRYTMDYWGQGTSVTVSS
VL: QAVVTQESALTTSPGETVTLTCRSSTGAVTTSNYANWVQEKPDHLFTGLIGGINNRVPGVPARFSGSLIGDKAALTITGAQTEDEAIYFCALWYSNHWVFGGGTKLTVL
notes: anti-Gal3 antibody; also called 846T.14A2
Consider B7, for which the “percent blockade of GAL3-ITGb3 interaction” value in test [1] was above 90%. Also, the “percent blockade of GAL3-ITGaV interaction” value in test [2] was above 90%. For the same molecule, in test [3], the “percent blockade of GAL3-ITGa3 interaction” value is above 90%.

B8: F847.14H4 (847.14H4) (antibody, V domains shown)
VH: QIQLVQSGPELTKPGETVKISCKASGYTFTDYGMNWVRQAPGETLKWMGWINTYTGEPTYADDFKGRFAFSLESSASTAYLQINNLKNEDVATYFCARYPMDYWGQGTSVTVSS
VL: QAVVTQESALTTSPGETVTLTCRSSTGAVTTSNYANWVQEKPDHLFTGLIGGTNNRAPGVPARFSGSLIGDKAALTITGAQTEDEAIYFCALWYSNHLVFGGGTKLTVL
notes: anti-Gal3 antibody
For the molecule B8, in test [1], the “percent blockade of GAL3-ITGb3 interaction” value is below 10%. The “percent blockade of GAL3-ITGaV interaction” value in test [2] is below 30%. Moreover, the “percent blockade of GAL3-ITGa3 interaction” value in test [3] is below 35%.

B9: 13H12.2F8 (antibody, V domains shown)
VH: QIQLVQSGPELKKPGETVKISCKASGYTFTTYGMSWVKQAPGKGLKWMGWINTYSGVPTYADDFKGRFAFSLETSASTAYLQINNLKNEDTATYFCAVPYEYDGAYWGQGTLVTVSA
VL: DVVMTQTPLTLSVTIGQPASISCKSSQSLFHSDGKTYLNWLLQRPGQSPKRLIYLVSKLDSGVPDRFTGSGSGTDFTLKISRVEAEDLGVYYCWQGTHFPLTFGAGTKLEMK
For B9, in test [4], the “Gal3-INSR Blocking @ 3 µg/mL” value is 97%. This molecule also returned a Kd in test [5] of 6.07 nM.

B10: F846C.1B2 (antibody, V domains shown)
VH: QIQLVQSGPELKKPGETVKISCKASGYTFTNYGMNWVKQAPGKGLKWMGWINTYTGEPSYADDFKGRFAFSLETSASTAYLQINNLKNEDMATYFCARWGGYAGDYYAMDFWGQGTSVTVSS
VL: NIWLTQSPSSLAVSAGEMVTMTCKSSQSVLYSSNQKNYLAWYQQKPGQSPKLLIYWASTRESGVPDRFTGSGSGTDFSLTISSVQAEDLAVYYCHQYLSSLTFGAGTKLELK
notes: also called 846.1B2
Take B10: the “percent blockade of GAL3-ITGb3 interaction” value in test [1] is above 90%. Moreover, the “percent blockade of GAL3-ITGaV interaction” value in test [2] is above 90%. The “percent blockade of GAL3-ITGa3 interaction” value in test [3] was above 90%.

B11: F846C.2H3 (antibody, V domains shown)
VH: QIQLVQSGPELKKPGETVKISCKASGYTFTNYGMNWVKQAPGKGLKWMGWINTYTGEPSYADDFKGRFAFSLETSASTAYLQINNLKNEDMATYFCARWGGYDGDYYAMDYWGQGTSVTVSS
VL: NIMMTQSPSSLAVSAGEKVTMSCKSSQSVLYSSNQKNYLAWYQQKPGQSPKLLIYWASTRESGVPDRFTGSGSGTDFTLTISSVQPEDLAVYYCHQYLSSLTFGAGTKLELK
notes: also called 846.2H3
For B11, in test [1], the “percent blockade of GAL3-ITGb3 interaction” value was above 90%. Further, in test [2], the “percent blockade of GAL3-ITGaV interaction” value was above 90%. The “percent blockade of GAL3-ITGa3 interaction” value in test [3] was above 90%.

B12: F846C.1H12 (antibody, V domains shown)
VH: QIQLVQSGPELKKPGETVKISCKASGYTFTNFGMNWVKQAPGKGLKWMGWINTYTGEPSYADDFKGRFAFSLETSASTAYLQINNLKNEDIATYFCARWGGYAGDYYAMDYWGQGTSVTVSS
VL: NIMMTQSPSSLAVSAGQKVTMSCKSSQSVLYSSSQKNYLAWYQQKPGQSPKLLIYWASTRESGVPDRFSGSGSGTDFTLTISSVQPEDLAVYYCHQYLSSLTFGAGTKLELKR
notes: also called 846.1H12
As to B12, the “percent blockade of GAL3-ITGb3 interaction” value in test [1] is above 90%. The “percent blockade of GAL3-ITGa3 interaction” value in test [3] was above 90%.

B13: F846TC.16B5 (antibody, V domains shown)
VH: QIQLVQSGPELKKPGETVKISCKASGYTFTNYGMNWVKQAPGKGLKWMGWINTYTGEPAYADDFKGRFAFSLETSASTAYLQINNLKNEDMATYFCARWGGYDGDYYAMDYWGQGTSVTVSS
VL: NIMMTQSPSSLAVSAGEKVTMSCKSSQSVLYSSNQKNYLAWYQQKPGQSPKLLIYWASTRESGVPDRFTGSGSGTDFTLTISSVQAEDLAVYYCHQYLSSLTFGAGTKLELKR
notes: also called 846T.16B5
Consider B13, for which the “percent blockade of GAL3-ITGb3 interaction” value in test [1] is above 90%. Moreover, the “percent blockade of GAL3-ITGaV interaction” value in test [2] was above 90%. The “percent blockade of GAL3-ITGa3 interaction” value in test [3] is above 90%.

B14: 3B11.2G2 (antibody, V domains shown)
VH: QIQLVQSGPELKKPGETVKISCKTSGYKFKTYVMSWVKQAPGKALKWMGWINTYSGVPTYADDFKGRFAFSLETSASTAYLEIINLKNEDTATYFCARDGNYGDPMDYWGQGTSVTVSS
VL: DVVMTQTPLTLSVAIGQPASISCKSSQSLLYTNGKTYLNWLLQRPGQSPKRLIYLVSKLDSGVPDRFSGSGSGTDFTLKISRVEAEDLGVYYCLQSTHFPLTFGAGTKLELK
Turning to B14, the “Gal3-INSR binding remaining, % of unblocked sample” value in test [6] is below 5%. In test [4], the “Gal3-INSR Blocking @ 3 µg/mL” value amounted to 96%. Also, the equilibrium dissociation constant (Kd) in test [5] is below 1 nM.

B15: 4G2.2G6 (antibody, V domains shown)
VH: QIQLVQSGPDLKKPGETVKISCKASGYTFTTYVMSWVKQAPGKDLKWMGWINTHSGVPTYADDFKGRFDFSLETSANTAFLQINNLKNEDTATYFCTRDGNDGDAMDNWGQGTSVTVSS
VL: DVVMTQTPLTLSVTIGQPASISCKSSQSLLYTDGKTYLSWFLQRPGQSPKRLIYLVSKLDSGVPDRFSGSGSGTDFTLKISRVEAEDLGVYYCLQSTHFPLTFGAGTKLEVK
Take B15: the “Gal3-INSR binding remaining, % of unblocked sample” value in test [6] was below 5%. Also, the “Gal3-INSR Blocking @ 3 µg/mL” value in test [4] is 100%. Moreover, the Kd in test [5] is below 1 nM.

B16: 7D8.2D8 (antibody, V domains shown)
VH: EVQLVESGGGLVKPGGSLKLSCAASGFTFSSYAMSWVRQTPEKRLEWVATISDGGIYTYYPDNVKGRFTISRDNAKNNLFLQMSHLKSEDTAMYYCVRDGGYWGQGTTLTVSS
VL: DVLMTQTPLSLPVSLGDQASISCRSSQSIVHSNGNTYLEWYLQKPGQSPKLLIYKVSNRFSGVPDRFSGSGSGTDFTLKISRVEAEDLGVYYCFQGSHVPLTFGAGTKLELK
Regarding B16, the “Gal3-INSR Blocking @ 3 µg/mL” value in test [4] was found to be 75%. For the same molecule, the Kd in test [5] worked out at 2.49 nM.

B17: 15F10.2D6 (antibody, V domains shown)
VH: EVQLVESGGGLVKPGGSLKLSCAASGFAFSSYAMSWVRQTPEKRLEWVATISDGGVYTYYTDHVKGRFTISRDNAEDNLYLQMSHLKSEDTAMYYCVRDGGYWGQGTTLTVSS
VL: DVLMTQTPLSLPVSLGDQASISCRSSQSIVHNNGNTYLEWYLQKPGQSPKLLIYKVSNRFSGVPDRFSGSGSGTDFTLKISRVEAEDLGVYYCFQGSHVPLTFGGGTKLELK
For the molecule B17, the “Gal3-INSR Blocking @ 3 µg/mL” value in test [4] amounted to 82%. Binding in test [5] was put at a Kd of 2.06 nM.
